Target: Toxoplasma gondii ABCB7-like (TgABCB7L), TGGT1_269000 (Toxoplasma gondii)
Assay: native gel or EMSA; BN-PAGE (4-16% Bis-Tris) of ABCB7L-HA parasites solubilised in 1% βDDM on ice, immunoblot with anti-HA; bovine mitochondrial membranes as size marker

## Toxoplasma gondii ABCB7-like (TgABCB7L), TGGT1_269000 (natural protein)
  stoichiometry N: 2

Reference: article PMC11481526
